# Assay results reported in US9127076B2, “Modified peptides having toxin-enhancing effects” (The University of Georgia Research Foundation, dated 2015).
# Target: Cry1Fa toxin (Bacillus thuringiensis, UniProt Q03746)
# Assay: cell-based or functional assay
row,Binder,"larval mortality and larval weight, diet surface bioassay, neonate S. frugiperda, 0.1 µg/cm^2 Cry1Fa [fold]"
1,Ms-CR10-12(PS) (receptor) MHLECISATDPDGLHAGVVTFQVVGDEESQAYFQVVNDGANLGSLSLLQAVPEEIAEFSITICATDQGTDPGPLSTDMTFAVVFVPTQGEPAFASSEHAVAFIEASAGMEESHQLPLAQDIANHLCEDDCHSIYYAIIDGNSEGHFGLDPVANALFLSAELIAEQSASHTLQVAASNSPDGGIPLPASILTVTVTVAEADPAPVFMAELYTAGISTADSIGCELLALHATQSEGAAITYAIDYDTMVVDPSLEAVCQSAFVLNAQTGVLTLNIQPTATMHGLFNFEVTATDTAGAQDRTDVTVYVVSSQNRLEHHHHHH,< 2
2,Sf-CR10-12(PS) (receptor) MAFLDCLSATDEDGLHAGCVTFSIAGNDEAAEYFNVLNDGDNSAMLTLSQALPAGVQQFELVISATDGGTEPGPSSTDCSVTVVFVMTQGDPVFDDNAASVSFVEHEAGMSESFQLPQADDPSNYACMDDCHTIYYSIVDGNDGDHFAVEPETNVIYLLSPLDSSQQEQYSVVVAASNTPGGTSTLSSSLLTVTIGVSEANPSPIFESEFYTAGVLHTDSIHSELVYLAASHSEGLPIVYSIDQETMSIDESLQTVVEDAFDINSATGVISLNFQPTSVMHGSFDFEVVASDTCGASDCASVSIYMISTRVRVHHHHHH,~4
3,Sf-CR10-12 (receptor) MKFLDRLSATDEDGLHAGRVTFSIAGNDEAAEYFNVLNDGDNSAMLTLKQALPAGVQQFELVIRATDGGTEPGPRSTDCSVTVVFVMTQGDPVFDDNAASVRFVEKEAGMSEKFQLPQADDPKNYRCMDDCHTIYYSIVDGNDGDHFAVEPETNVIYLLKPLDRSQQEQYRVVVAASNTPGGTSTLSSSLLTVTIGVREANPRPIFESEFYTAGVLHTDSIHKELVYLAAKHSEGLPIVYSIDQETMKIDESLQTVVEDAFDINSATGVISLNFQPTSVMHGSFDFEVVASDTRGASDRAKVSIYMISTRVRVHHHHHH,~2
